Measurements reported in patent publication US20090258007A1 (Kyowa Kirin, published 2009).

Experiments:
[1] = target: T1, human PERP with myc-His tag expressed in CHO/DG44 cells (PERP/CHO cell) (human, UniProt Q96FX8 1-193); experiment: flow cytometry on PERP/CHO cells against CHO/DG44 cells, 10 µg/ml
T1 construct: Four-pass membrane protein of 193 amino acids; On intact cells in FMAT and flow cytometry; as Triton X lysate in sandwich ELISA and immunoprecipitation; SDS-denatured in Western blotting; also called PERP/CHO cells; PERP-expressing cell line; not shown: C-terminal myc-His tag from pcDNA 3.1(-)/myc-His C
Experimental: As the cells, PERP/CHO cells and CHO/DG44 cells were used. The cells which were cultured for 2 to 3 days on an Iscove's Modified Dulbecco's medium (manufactured by Invitrogen) containing 10% fetal bovine serum and peeled off by 0.02% EDTA solution (manufactured by Nacalai Tesque) were washed with PBS and blocked for 20 minutes at ice temperature using BSA-PBS in order to avoid non-specific antibody adsorption. […] Again, washing was carried out 3 times using PBS by a centrifugation method, followed by suspension in PBS, and wavelength of 510 to 530 nm excited by laser beam 488 nm Ar was measured by a flow cytometer (manufactured by Beckman Coulter).

[2] = target: T1, human PERP with myc-His tag expressed …; experiment: flow cytometry on PERP/CHO cells, 5-fold dilutions from 20 µg/mL
Experimental: After washing with a buffer for FCM twice, a solution in which PE-labeled anti-human IgG (H+L) antibody (manufactured by Beckman Coulter) was diluted 50-fold with a buffer for FCM was added thereto at 50 μL/well. After reaction in ice shading from the light for 30 minutes, washing with a buffer for FCM was carried out 3 times and fluorescence intensity was measured using a flow cytometer.

B1: anti-PERP mouse antibody KM3411 (antibody, V domains shown)
VH: DVQLQESGPGLVKPSQSLSLTCTVTGFSITTEYAWNWIRQFPGNRLEWMGYIGYTGRTNYSPSLKSRISITRDTSKNQFFLQLNSVTTEDTATYYCTRMDYWGQGTSVTVSS
VL: QIVLIQSPVIMSASPGEKVTITCSASSSVSYMHWFQQKPGTSPKLWIYSTSNLASGVPARFSGSGSGTSYSLTISRMEAEDAATYYCQQRSSYPPTFGAGTKLELK
notes: Used as hybridoma culture supernatant or purified antibody; also called monoclonal antibody KM3411; monoclonal antibody produced by hybridoma KM3411 (FERM BP-8643)
binding result [1]: binds

B2: anti-PERP chimeric antibody KM3481 (antibody, V domains shown)
VH: B1 VH
VL: B1 VL
notes: Human chimeric antibody: VH and VL of KM3411 with human CH and CL from the vector pKANTEX93 (WO 97/10354)
binding result [2]: binds
